{"source": "paper PMC9765439", "about": "“Systems-Wide Dissection of Organic Acid Assimilation in Pseudomonas aeruginosa Reveals a Novel Path To Underground Metabolism” (mBio, 2022)", "proteins": {"B1": {"name": "PrpCPa (2-methylcitrate synthase, 2-MCS) (Pseudomonas aeruginosa PAO1) (protein)", "chain": "MAEAKVLSGAGLRGQVAGQTALSTVGQEGAGLTYRGYDVRDLAAAAIFEEVAYLLLYGELPNKQQLDAYLKKLQGQRDLPQALKEVLERIPKDAHPMDVMRTGASVLGTLEPELSFDQQRDVADRLLAAFPAIMTYWYRFTHEGQRIDCNSDEPTIGGHFLALLHGKKPSELHVKVMNVSLILYAEHEFNASTFTARVCASTLSDLYSCVTGAIGSLRGPLHGGANEAAMELIERFSSPQEATAELLKMLERKDKIMGFGHAIYKDSDPRNEVIKGWSKQLADEVGDKVLFAVSEAIDKTMWEQKKLFPNADFYHASAYHFMGIPTKLFTPIFVCSRTSGWTAHVFEQRANNRIIRPSAEYTGVEQRAFVPLEQR", "notes": "pET-19m, N-terminal TEV-cleavable His6 tag, cut; E. coli host; homodimer"}}, "assay_in_all_cases": "purified protein", "type_in_all_cases": "biochemical, Pseudomonas aeruginosa", "key": {"purified protein [1]": {"substrate": "CC(=O)SCCNC(=O)CCNC(=O)[C@H](O)C(C)(C)COP(=O)(O)OP(=O)(O)OC[C@H]1O[C@@H](n2cnc3c(N)ncnc32)[C@H](O)[C@@H]1OP(=O)(O)O", "conditions": "0.5 mM oxaloacetate, 50 mM HEPES pH 7.5, 0.1 M KCl, 0.54 M glycerol, 37 °C"}, "purified protein [2]": {"substrate": "CCC(=O)SCCNC(=O)CCNC(=O)[C@H](O)C(C)(C)COP(=O)(O)OP(=O)(O)OC[C@H]1O[C@@H](n2cnc3c(N)ncnc32)[C@H](O)[C@@H]1OP(=O)(O)O", "conditions": "0.5 mM oxaloacetate, 50 mM HEPES pH 7.5, 0.1 M KCl, 0.54 M glycerol, 37 °C"}, "purified protein [3]": {"substrate": "O=C(O)CC(=O)C(=O)O", "conditions": "0.5 mM propionyl-CoA, 50 mM HEPES pH 7.5, 0.1 M KCl, 0.54 M glycerol, 37 °C"}}, "data": [{"protein": "B1", "values": [{"measurement": "Km", "setting": "purified protein [1]", "result": 28, "unit": "µM"}, {"measurement": "kcat/Km", "setting": "purified protein [1]", "result": 114000, "unit": "M⁻¹ s⁻¹"}, {"measurement": "Km", "setting": "purified protein [2]", "result": 45, "unit": "µM"}, {"measurement": "Km", "setting": "purified protein [3]", "result": 15.65, "unit": "µM"}, {"measurement": "kcat/Km", "setting": "purified protein [3]", "result": 228000, "unit": "M⁻¹ s⁻¹"}]}]}
